Stoichiometry N data for one substance are collected here from publication PMC7831379.

This test deals with pre-stabilized HIV-1 CA A14C/E45C/W184A/M185A hexamer (HIV-1). The test can be described thus: crystal structure.

As a reminder, the stoichiometry N is the number of molecules, sites or subunits per partner or assembly.

As for “pre-stabilized HIV-1 CA A14C/E45C/W184A/M185A hexamer (natural protein)”, the stoichiometry N is 6.
